System: patients with Stage IV NSCLC
Experiment: Phase III study: safety, adverse events graded according to NCI CTCAE v4.0
[1] = All treated patients, Chemo N = 263, Atezo N = 286
[2] = All treated patients, Chemo N = 263, Atezo N = 286, listed as atezolizumab

Substance: atezolizumab
- AE leading to any treatment withdrawal, % of patients [1]: (6.3%)
- AE leading to any treatment withdrawal, number of patients [1]: 18
- All Deaths, % of patients [1]: 43.7%
- All Deaths, number of patients [1]: 125
- All Grade AE, any cause, % of patients [1]: (90.2%)
- All Grade AE, any cause, number of patients [1]: 258
- Cause of death: Adverse Event, % of patients [1]: 3.8%
- Cause of death: Adverse Event, number of patients [1]: 11
- Cause of death: Other, including deaths collected by public records, % of patients [1]: 3.8%
- Cause of death: Other, including deaths collected by public records, number of patients [1]: 11
- Cause of death: Progressive disease, % of patients [1]: 36.0%
- Cause of death: Progressive disease, number of patients [1]: 103
- Grade 3-4 AE, % of patients [1]: (31.8%)
- Grade 3-4 AE, number of patients [1]: 91
- Grade 5 AE, % of patients [1]: (3.8%)
- Grade 5 AE, number of patients [1]: 11
- Related AE (TRAE), % of patients [1]: (60.5%)
- Related AE, number of patients [1]: 173
- Serious Adverse Event, % of patients [1]: (28.3%)
- Serious Adverse Event, number of patients [1]: 81
- Treatment-Related SAE, % of patients [1]: (8.4%)
- Treatment-Related SAE, number of patients [1]: 24
- Treatment-related Grade 3-4 AE, % of patients [1]: (12.9%)
- Treatment-related Grade 3-4 AE, number of patients [1]: 37
- Treatment-related Grade 5 AE, number of patients [1]: 0
- Related AE (TRAE), % of patients [2]: 60.5%
- Treatment-related Grade 3-4 AE, % of patients [2]: 12.9%
- Treatment-related AE Anemia, All Grades, % (Atezo n = 286, Chemo n = 263): (3.5) %
- Treatment-related AE Asthenia, All Grades, % (Atezo n = 286, Chemo n = 263): (7.3) %
- Treatment-related AE Asthenia, Grade 3-4, % (Atezo n = 286, Chemo n = 263): 0.3%
- Treatment-related AE Constipation, All Grades, % (Atezo n = 286, Chemo n = 263): (3.5) %
- Treatment-related AE Constipation, Grade 3-4, % (Atezo n = 286, Chemo n = 263): 0.3%
- Treatment-related AE Decreased appetite, All Grades, % (Atezo n = 286, Chemo n = 263): (7.0) %
- Treatment-related AE Decreased appetite, Grade 3-4, % (Atezo n = 286, Chemo n = 263): 0.7%
- Treatment-related AE Decreased white blood cell count, All Grades, % (Atezo n = 286, Chemo n = 263): (1.0) %
- Treatment-related AE Fatigue, All Grades, % (Atezo n = 286, Chemo n = 263): (7.7) %
- Treatment-related AE Fatigue, Grade 3-4, % (Atezo n = 286, Chemo n = 263): 0.7%
- Treatment-related AE Hyperkalemia, All Grades, % (Atezo n = 286, Chemo n = 263): (2.1) %
- Treatment-related AE Hyperkalemia, Grade 3-4, % (Atezo n = 286, Chemo n = 263): 1.0%
- Treatment-related AE Hyponatremia, All Grades, % (Atezo n = 286, Chemo n = 263): (1.7) %
- Treatment-related AE Hyponatremia, Grade 3-4, % (Atezo n = 286, Chemo n = 263): 1.0%
- Treatment-related AE Leukopenia, All Grades, % (Atezo n = 286, Chemo n = 263): (1.0) %
- Treatment-related AE Leukopenia, Grade 3-4, % (Atezo n = 286, Chemo n = 263): 0.3%
- Treatment-related AE Nausea, All Grades, % (Atezo n = 286, Chemo n = 263): (7.0) %
- Treatment-related AE Nausea, Grade 3-4, % (Atezo n = 286, Chemo n = 263): 0.3%
- Treatment-related AE Neutropenia, All Grades, % (Atezo n = 286, Chemo n = 263): (1.0) %
- Treatment-related AE Neutropenia, Grade 3-4, % (Atezo n = 286, Chemo n = 263): 0.7%
- Treatment-related AE Pancytopenia, All Grades, % (Atezo n = 286, Chemo n = 263): (0.3) %
- Treatment-related AE Pancytopenia, Grade 3-4, % (Atezo n = 286, Chemo n = 263): 0.3%
- Treatment-related AE Thrombocytopenia, All Grades, % (Atezo n = 286, Chemo n = 263): (1.7) %
- Treatment-related AE Thrombocytopenia, Grade 3-4, % (Atezo n = 286, Chemo n = 263): 0.3%
- Treatment-related AE Vomiting, All Grades, % (Atezo n = 286, Chemo n = 263): (1.4) %
- Treatment-related AE Vomiting, Grade 3-4, % (Atezo n = 286, Chemo n = 263): 0.3%
- Grade 5 AE: Acute myocardial infarction, % (Chemo N = 263, Atezo N = 286): 0.3%
- Grade 5 AE: Aspiration, % (Chemo N = 263, Atezo N = 286): 0.3%
- Grade 5 AE: COPD, % (Chemo N = 263, Atezo N = 286): 0.3%
- Grade 5 AE: Cardiac arrest, % (Chemo N = 263, Atezo N = 286): 0.3%
- Grade 5 AE: Cardiac disorders, % (Chemo N = 263, Atezo N = 286): 0.7%
- Grade 5 AE: Cerebral infarction, % (Chemo N = 263, Atezo N = 286): 0.3%
- Grade 5 AE: Death, % (Chemo N = 263, Atezo N = 286): 0.7%
- Grade 5 AE: Gastrointestinal disorders, % (Chemo N = 263, Atezo N = 286): 0.3%
- Grade 5 AE: General disorders and administration site conditions, % (Chemo N = 263, Atezo N = 286): 0.7%
- Grade 5 AE: Infections and infestations, % (Chemo N = 263, Atezo N = 286): 0.3%
- Grade 5 AE: Mechanical ileus, % (Chemo N = 263, Atezo N = 286): 0.3%
- Grade 5 AE: Nervous system disorders, % (Chemo N = 263, Atezo N = 286): 0.3%
- Grade 5 AE: Product issues, Device occlusion, % (Chemo N = 263, Atezo N = 286): 0.3%
- Grade 5 AE: Pulmonary embolism, % (Chemo N = 263, Atezo N = 286): 0.3%
- Grade 5 AE: Respiratory, thoracic and mediastinal disorders, % (Chemo N = 263, Atezo N = 286): 1.0%
- Grade 5 AE: Sepsis, % (Chemo N = 263, Atezo N = 286): 0.3%
- Grade 5 AE: Total number of patients (Chemo N = 263, Atezo N = 286): 11
